Laboratory results from patent US12139542B2, “Inhibitors of aortic carboxypeptidase-like protein (ACLP)” (TRUSTEES OF BOSTON UNIVERSITY, priority 2014, dated 2024).

Tests used:
[1] = system: IMR90 human lung fibroblast cells; assay: SMA and collagen I protein expression in IMR90 fibroblasts treated with recombinant ACLP proteins (Western blot); assay type: cell-based; conditions: IMR90, low serum media, 3.75 μg/ml (~30 nM) protein, 48 h, vs control cells
Description: Cell Treatments. IMR90 human lung fibroblasts (ATCC) and AD293 cells (Stratagene) were grown in DMEM supplemented with 10% FBS and 1% penicillin/streptomycin and incubated in a 5% CO2 atmosphere at 37° C. Mink lung epithelial cells stably transfected with the plasminogen activator inhibitor 1 (PAI-1) reporter construct driving luciferase expression (MLEC-TGFβ) (2) were grown in DMEM supplemented with 10% FBS and 1% penicillin/streptomycin, maintained in 250 μg/ml G418, and incubated in a 5% CO2 atmosphere at 37° C.
(§1) IMR90 cells and MLEC-TGFβ cells were generally treated for 30 min, 24 h, or 48 h in low serum media containing 0.5% FBS and 1% penicillin/streptomycin and incubated in a 5% CO2 atmosphere at 37° C. Cells were treated with 3.75 μg/ml (approximately 30 nM) rACLP (full length, Tsp, or C-terminal) or 1 nM TGFβ (R&D) (as a positive control), except where indicated. Cells treated for 30 min were serum starved in low serum media overnight preceding treatment.
Recombinant ACLP induces myofibroblast gene and protein expression. To further define the role of ACLP in the fibroblast to myofibroblast differentiation process, IMR90 human lung fibroblast cells were treated with rACLP. […] IMR90 cells were grown in media containing 3.75 μg/ml (30 nM) rACLP or 1 nM TGFβ as a positive control (FIG. 2A). […] These findings indicate that ACLP promotes the fibroblast to myofibroblast differentiation because it stimulates expression of SMA and collagen 1(3).
The N-terminal domain of ACLP promotes myofibroblast marker protein expression. Because the inventors discovered that the N-terminal Tsp motifs of ACLP (e.g. the PFD) is the domain responsible for promoting TGFβ signaling, the inventors next assessed which domain of ACLP is responsible for increased SMA and collagen I expression in lung myofibroblasts. IMR90 lung fibroblasts were treated in low serum media containing equal molar amounts of full-length protein, the pro-fibrotic domain (PFD) of ACLP, and C-terminal ACLP (˜30 nM) for 48 h (FIG. 7).

[2] = system: TGFβ signaling activity (PAI-1 promoter luciferase); assay: MLEC-TGFβ activity assay (PAI-1 promoter luciferase reporter); assay type: cell-based, mink; conditions: MLEC-TGFβ cells, treated overnight in low serum media
Description: Cell Treatments. IMR90 human lung fibroblasts (ATCC) and AD293 cells (Stratagene) were grown in DMEM supplemented with 10% FBS and 1% penicillin/streptomycin and incubated in a 5% CO2 atmosphere at 37° C. Mink lung epithelial cells stably transfected with the plasminogen activator inhibitor 1 (PAI-1) reporter construct driving luciferase expression (MLEC-TGFβ) (2) were grown in DMEM supplemented with 10% FBS and 1% penicillin/streptomycin, maintained in 250 μg/ml G418, and incubated in a 5% CO2 atmosphere at 37° C. IMR90 cells and MLEC-TGFβ cells were generally treated for 30 min, 24 h, or 48 h in low serum media containing 0.5% FBS and 1% penicillin/streptomycin and incubated in a 5% CO2 atmosphere at 37° C. Cells were treated with 3.75 μg/ml (approximately 30 nM) rACLP (full length, Tsp, or C-terminal) or 1 nM TGFβ (R&D) (as a positive control), except where indicated. Cells treated for 30 min were serum starved in low serum media overnight preceding treatment. MLEC-TGFβ activity assay. To measure TGFβ signaling activity, 1×10^4 MLEC-TGFβ cells/well were plated on white 96-well cell culture treated plates and allowed to adhere overnight. […] Luciferase activity was measured on an auto-injecting BioTek Synergy HT plate reader using 50 μl of luciferase assay substrate (Promega).

[3] = system: Smad3 phosphorylation (canonical TGFβ signaling); assay: Smad3 phosphorylation in serum starved IMR90 fibroblasts (Western blot); assay type: cell-based, human; conditions: serum starved IMR90, ~30 nM protein, 30 min, low serum media
Description: as §1
rACLP stimulates canonical TGFβ signaling (Published Tumelty et al JBC 2014). Because ACLP increases TGFβ signaling in a reporter assay, the role of ACLP in canonical TGFβ signaling was investigated in detail. In pulmonary fibroblasts, TGFβ promotes the phosphorylation of Smad3 which then binds to Smad4 and translocates into the nucleus to promote transcription of myofibroblast marker genes (4,5). Therefore, the effects of ACLP on Smad3 phosphorylation were measured. Serum starved IMR90 cells were treated with rACLP for 15, 30, 45, or 60 min, or 24 h (FIG. 3) (3).
Serum starved IMR90 human lung fibroblasts were treated with equivalent molar amounts (˜30 nM) of purified full-length, Tsp repeat domain, or C-terminal protein for 30 min in low serum media (FIG. 6).

[4] = system: ACLP-induced myofibroblast differentiation; assay: TGFβ receptor-Fc decoy block of ACLP-induced SMA and SM-MHC expression in human lung fibroblasts; assay type: cell-based; conditions: human lung fibroblast cells with rACLP, 48 hours
[5] = molecular target: T1, TGFβ Receptor II (TβRII) (Mus musculus, UniProt Q62312); assay: ACLP binding assay: biotinylated rACLP on streptavidin plate incubated with TβRII Fc
T1 construct: contains the extracellular domain of mouse TβRII fused to the Fc domain of human IgG; purchased R&D
T1 sequence (Q62312 24-166 limits assumed): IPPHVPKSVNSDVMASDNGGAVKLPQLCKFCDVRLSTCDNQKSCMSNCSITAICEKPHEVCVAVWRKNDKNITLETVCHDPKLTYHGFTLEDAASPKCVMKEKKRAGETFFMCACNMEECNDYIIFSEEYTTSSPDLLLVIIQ
Description: ACLP binding assays. To determine if ACLP binds to TGFβ Receptor II (TORII), ACLP was biotinylated using an EZ-Link Sulfo-NHS-LC-Biotin kit (Thermo Scientific 21327) according to manufacturer's instructions. Briefly, rACLP (0.267 nM) was incubated with 20 fold molar excess of biotin for 30 min at room temperature. The protein was then dialyzed back into DPBS overnight. Biotinylated ACLP (1 μg/well) was immobilized on a PIERCE™ Streptavidin coated High-Binding Capacity Plate (Thermo-Scientific PI-15500) overnight at 4° C. in binding buffer made up of PBS with Mg^2+, Ca^2+, 0.1% BSA, and 0.05% Tween 20). The next day, the plates were washed with binding buffer, blocked with the same buffer containing 1% BSA at room temperature for 1 h, followed by incubation with increasing amounts of TβRII Fc (0, 10, 100, 1000 ng). Binding was detected with Human-IgG-HRP (GE Healthcare Life Sciences) followed by incubation with 3,3′,5,5′-Tetramethylbenzidine (TMB, eBioscience). The reaction was quenched with 2 M H2SO4 and absorbance at 450 nm was measured on the BioTek Synergy HT system.
ACLP binds to the TGFβ-receptor II. […] The TβRII Fc chimera contains the extracellular domain of mouse TβRII fused to the Fc domain of human IgG and has been used as a global inhibitor of TGFβ (6).

[6] = system: ACLP signaling (pSmad3); assay: TGFβ receptor-Fc decoy block of rACLP-induced pSmad3 in IMR90 fibroblasts; assay type: cell-based; conditions: IMR90 human lung fibroblast cells, 90 mins

B1: Tsp repeat domain: recombinant N-terminal Tsp repeat domain of mouse ACLP, amino acids 26-373, myc-His tagged (protein)
chain: QTVLTDDEIEEFLEGFLSELETQSPPREDDVEVQPLPEPTQRPRKSKAGGKQRADVEVPPEKNKDKEKKGKKDKGPKATKPLEGSTRPTKKPKEKPPKATKKPKEKPPKATKKPKEKPPKATKKPKEKPPKATKRPSAGKKFSTVAPLETLDRLLPSPSNPSAQELPQKRDTPFPNAWQGQGEETQVEAKQPRPEPEEETEMPTLDYNDQIEKEDYEDFEYIRRQKQPRPTPSRRRLWPERPEEKTEEPEERKEVEPPLKPLLPPDYGDSYVIPNYDDLDYYFPHPPPQKPDVGQEVDEEKEEMKKPKKEGSSPKEDTEDKWTVEKNKDHKGPRKGEELEEEWAPVEK
modifications: left off: small tags and cut ends
notes: recombinant N-terminal Tsp repeat domain of mouse ACLP, amino acids 26-373, myc-His tagged
- SMA protein expression [1]: promoted an increase
- collagen protein expression [1]: promoted an increase
- amount that stimulated luciferase activity [2]: ≤ 5 µg/mL
- Smad3 phosphorylation [3]: stimulated Smad3 phosphorylation

B2: TβRII Fc: extracellular domain of mouse TβRII fused to the Fc domain of human IgG (R&D); exemplary decoy ACLP inhibitor (protein)
chain: T1 sequence (Q62312 24-166 limits assumed)
modifications: left off: a dimerising Fc or GST
- ACLP-induced SM-MHC expression [4]: decreases
- ACLP-induced SMA expression [4]: decreases
- binding to streptavidin wells without ACLP ([5]; control wells without ACLP): did not bind
- amount that inhibited ACLP binding to TGFβ-RII in vitro ([5]; in vitro): at least 100 ng
- pSmad3 expression in the presence of mouse rACLP [6]: decreases pSmad3 expression
